Experimental data as given in patent US20260209362A1 (VIB VZW, published 2026).

T1: human IL-12Rβ2 expressed on cells (human, UniProt Q99665 24-862)
T1 construct: the cell lines are described by plasmid or cDNA number only; also called hIL-12RB2; HEK293T transiently transfected with human IL-12Rβ2
T1 sequence: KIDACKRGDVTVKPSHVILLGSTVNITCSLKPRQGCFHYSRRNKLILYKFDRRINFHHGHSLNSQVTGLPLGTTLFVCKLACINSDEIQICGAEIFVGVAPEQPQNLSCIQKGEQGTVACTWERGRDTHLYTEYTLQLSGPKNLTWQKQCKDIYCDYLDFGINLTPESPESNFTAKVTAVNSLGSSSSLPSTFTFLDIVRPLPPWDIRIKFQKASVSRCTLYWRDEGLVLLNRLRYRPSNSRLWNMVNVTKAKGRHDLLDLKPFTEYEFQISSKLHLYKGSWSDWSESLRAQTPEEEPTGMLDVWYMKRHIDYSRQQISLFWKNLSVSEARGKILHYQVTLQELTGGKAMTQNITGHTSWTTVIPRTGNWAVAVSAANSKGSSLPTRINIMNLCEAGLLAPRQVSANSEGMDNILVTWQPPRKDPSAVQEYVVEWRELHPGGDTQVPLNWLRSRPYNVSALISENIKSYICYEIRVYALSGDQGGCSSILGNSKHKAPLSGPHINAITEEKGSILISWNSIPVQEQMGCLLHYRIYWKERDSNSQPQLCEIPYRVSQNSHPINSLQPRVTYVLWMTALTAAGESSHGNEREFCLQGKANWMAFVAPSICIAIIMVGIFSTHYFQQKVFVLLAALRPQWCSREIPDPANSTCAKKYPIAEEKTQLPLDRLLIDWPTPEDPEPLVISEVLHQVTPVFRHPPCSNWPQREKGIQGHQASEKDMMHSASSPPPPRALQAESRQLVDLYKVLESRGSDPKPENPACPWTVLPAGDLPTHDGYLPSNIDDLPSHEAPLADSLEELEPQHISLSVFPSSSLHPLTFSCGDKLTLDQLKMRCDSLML

T2: biotinylated human recombinant IL-12Rβ2 (produced in-house) (human, UniProt Q99665 24-622, random biotinylated)
T2 construct: Soluble recombinant protein used for panning, ELISA and BLI; also called hIL-12RB2; hIL12RB2
T2 sequence: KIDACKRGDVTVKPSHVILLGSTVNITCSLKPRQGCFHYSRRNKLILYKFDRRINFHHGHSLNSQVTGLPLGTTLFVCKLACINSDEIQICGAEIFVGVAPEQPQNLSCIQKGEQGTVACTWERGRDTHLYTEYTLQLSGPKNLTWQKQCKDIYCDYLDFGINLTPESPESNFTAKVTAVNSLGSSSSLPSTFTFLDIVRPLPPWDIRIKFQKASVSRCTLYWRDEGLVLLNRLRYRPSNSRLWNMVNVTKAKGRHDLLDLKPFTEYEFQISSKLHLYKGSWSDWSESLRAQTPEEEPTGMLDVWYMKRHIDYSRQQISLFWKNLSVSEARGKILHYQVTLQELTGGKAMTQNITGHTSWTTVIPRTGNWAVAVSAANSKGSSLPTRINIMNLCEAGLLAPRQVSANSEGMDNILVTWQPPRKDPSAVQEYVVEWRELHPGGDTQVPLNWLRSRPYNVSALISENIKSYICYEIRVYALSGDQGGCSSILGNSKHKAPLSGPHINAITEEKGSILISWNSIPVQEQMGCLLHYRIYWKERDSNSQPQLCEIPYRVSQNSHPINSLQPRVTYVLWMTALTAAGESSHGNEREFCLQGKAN

T3: biotinylated mouse recombinant IL-12Rβ2 (produced in-house) (mouse, UniProt P97378 24-637, random biotinylated)
T3 construct: Soluble recombinant protein used for panning, ELISA and BLI; also called mIL-12RB2; mIL12RB2
T3 sequence: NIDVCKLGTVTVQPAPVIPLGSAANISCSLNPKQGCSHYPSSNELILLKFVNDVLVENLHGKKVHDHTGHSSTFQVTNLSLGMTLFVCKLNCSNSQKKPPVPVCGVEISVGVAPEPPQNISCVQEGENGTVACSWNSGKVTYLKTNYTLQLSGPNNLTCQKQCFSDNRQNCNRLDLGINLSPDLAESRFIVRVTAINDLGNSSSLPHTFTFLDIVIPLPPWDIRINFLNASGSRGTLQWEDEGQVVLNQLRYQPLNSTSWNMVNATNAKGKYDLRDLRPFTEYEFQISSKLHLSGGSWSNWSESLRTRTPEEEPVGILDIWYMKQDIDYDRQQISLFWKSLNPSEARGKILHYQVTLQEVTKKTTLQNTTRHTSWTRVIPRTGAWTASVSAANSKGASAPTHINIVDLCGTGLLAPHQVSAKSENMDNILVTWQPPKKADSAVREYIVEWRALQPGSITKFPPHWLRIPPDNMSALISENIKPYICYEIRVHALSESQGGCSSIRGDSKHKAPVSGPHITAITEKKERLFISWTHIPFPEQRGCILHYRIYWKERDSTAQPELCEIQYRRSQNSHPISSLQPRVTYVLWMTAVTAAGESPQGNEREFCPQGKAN


Tests used:
[1] = molecular target: T1, human IL-12Rβ2 expressed on cells; assay: flow cytometry, periplasmic extract VHH-HA on HEK293T cells transiently expressing human IL-12Rβ2
[2] = molecular target: T2, biotinylated human recombinant IL-12Rβ2 …; assay: BLI (Octet Red), periplasmic extract on biotinylated human IL-12Rβ2 on streptavidin tips, 1:1 model
[3] = molecular target: T2, biotinylated human recombinant IL-12Rβ2 …; assay: ELISA, periplasmic extract on biotinylated human IL-12Rβ2; signal over streptavidin control well
[4] = molecular target: T3, biotinylated mouse recombinant IL-12Rβ2 …; assay: ELISA, periplasmic extract on biotinylated mouse IL-12Rβ2; signal over streptavidin control well
[5] = molecular target: T3, biotinylated mouse recombinant IL-12Rβ2 …; assay: ELISA, periplasmic extract on biotinylated mouse IL-12Rβ2
[6] = molecular target: T2, biotinylated human recombinant IL-12Rβ2 …; assay: BLI (Octet Red), periplasmic extract on biotinylated human IL-12Rβ2 on streptavidin tips

Row | Binder | % cells bound [1] [%] | dMFI [1] | koff [2] [s⁻¹] | hIL12RB2/control (ELISA) [3] [ratio] | mIL12RB2/control (ELISA) [4] [ratio] | binding result [5] | Response [6]
1 | anti-IL-12Rβ2 VHH clone 3CRHS54 (clone ID 20422) (VHH, Tested as periplasmic extract (P.E.) from the pMECS vector; not shown: C-terminal HA tag) VHH: QVQLQESGGGLVQPGGSLRLSCTASGSIVSIYNMDWYRQAPGNEREWVASITSSGDPYYDGSAKGRFTISRDNAKMTVYLQMNSLEPEDTAVYFCKVPTEKGNYWGQGTQVTVSS | 41.5 | 870 | 0.00272 | 7.85 | 1.25 | no binding | 0.203
2 | anti-IL-12Rβ2 VHH clone 3CRHS9 (clone ID 20415) (VHH, Tested as periplasmic extract; also called 3CRMS9; not shown: C-terminal HA tag) VHH: QVQLQESGGGLVQPGGSLRLSCTASGSIVSIYNMDWYRQAPGNEREWVASITSSGDPYYDGSAKGRFTISRDNAKMTVYLQMNSLKPEDTAVYYCKVPTEKGNYWGQGTQVTVSS | 42.1 | 941 | 0.0034 | 5.08 | 1.09 | no binding | 0.222
3 | anti-IL-12Rβ2 VHH clone 3CRHS128 (clone ID 20432) (VHH, Tested as periplasmic extract; not shown: C-terminal HA tag) VHH: QVQLQESGGGLVQPGGSLRLSCAASGFTFSTSGMHWFRQAPGKGLEWVSSIGATVDNSYYASSVKGRFTISRDNAKNTLYLLMNSLKSEDTAVYYCSKDPTGSSRGQGTQVTVSS | 50.5 | 1380 | 0.00274 | 3.65 | 0.98 | no binding | 0.294
4 | anti-IL-12Rβ2 VHH clone 2CRH82 (clone ID 20372) (VHH, Tested as periplasmic extract; not shown: C-terminal HA tag) VHH: QVQLQESGGGLVQAGGSLRLSCAASARTESMYAMAWFRQAPGKEREIVAGIIQSGGTTYISDYMKGRFSIDRGNAENTVYLQMDSLKPEDTAVYSCAAKVSSGTPSDIQISQSRWYDHWGQGTQVTVSS | 40.1 | 744 | 0.00274 | 16.1 | 1.77 | no binding | 0.426
5 | anti-IL-12Rβ2 VHH clone 3CRH5 (clone ID 20373) (VHH, Tested as periplasmic extract; also called 3CRHS; not shown: C-terminal HA tag) VHH: QVQLQESGGGLVQAGGSLVLSCAASGSAALIFLMSWYRQAPGKQRELVAEVSRGGSTTYADSVEGRFTISRDNAKNIVDLQMNSLKPEDTAVYYCKADQNYGDSLRSSWGQGTQVTVSS | 39.5 | 735 | 0.00337 | 8.64 | 0.81 | no binding | 0.491
